The target in this test is T1, human FIGNL1ΔN (fidgetin-like 1 in which the N-terminal 284 aa were deleted) (human, UniProt Q6PIW4 285-674).
T1 sequence: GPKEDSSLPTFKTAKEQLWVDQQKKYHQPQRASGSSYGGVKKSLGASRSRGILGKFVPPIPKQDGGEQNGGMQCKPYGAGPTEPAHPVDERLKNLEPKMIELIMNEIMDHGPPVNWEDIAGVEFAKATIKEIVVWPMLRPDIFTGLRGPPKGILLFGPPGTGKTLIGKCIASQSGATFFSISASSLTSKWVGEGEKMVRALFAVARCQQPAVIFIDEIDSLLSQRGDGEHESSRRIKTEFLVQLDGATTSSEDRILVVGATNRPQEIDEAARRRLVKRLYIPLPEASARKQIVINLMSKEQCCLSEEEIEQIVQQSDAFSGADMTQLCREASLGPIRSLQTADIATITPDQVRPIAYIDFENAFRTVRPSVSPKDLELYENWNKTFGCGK
The test can be described thus: native gel or EMSA.

B1: human DMC1 (natural protein)
chain: MKEDQVVAEEPGFQDEEESLFQDIDLLQKHGINVADIKKLKSVGICTIKGIQMTTRRALCNVKGLSEAKVDKIKEAANKLIEPGFLTAFEYSEKRKMVFHITTGSQEFDKLLGGGIESMAITEAFGEFRTGKTQLSHTLCVTAQLPGAGGYPGGKIIFIDTENTFRPDRLRDIADRFNVDHDAVLDNVLYARAYTSEHQMELLDYVAAKFHEEAGIFKLLIIDSIMALFRVDFSGRGELAERQQKLAQMLSRLQKISEEYNVAVFVTNQMTADPGATMTFQADPKKPIGGHILAHASTTRISLRKGRGELRIAKIYDSPEMPENEATFAITAGGIGDAKE
For the molecule B1, the binding result was “binds”.

B2: human RAD51 (natural protein)
chain: MAMQMQLEANADTSVEEESFGPQPISRLEQCGINANDVKKLEEAGFHTVEAVAYAPKKELINIKGISEAKADKILAEAAKLVPMGFTTATEFHQRRSEIIQITTGSKELDKLLQGGIETGSITEMFGEFRTGKTQICHTLAVTCQLPIDRGGGEGKAMYIDTEGTFRPERLLAVAERYGLSGSDVLDNVAYARAFNTDHQTQLLYQASAMMVESRYALLIVDSATALYRTDYSGRGELSARQMHLARFLRMLLRLADEFGVAVVITNQVVAQVDGAAMFAADPKKPIGGNIIAHASTTRLYLRKGRGETRICKIYDSPCLPEAEAMFAINADGVGDAKD
B2: the binding result was “binds”.

Source of the values: paper PMC11327267 (Nature Communications, 2024).
